Assay results as given in paper PMC4893494, “Identification and Characterization of Five BAHD Acyltransferases Involved in Hydroxycinnamoyl Ester Metabolism in Chicory” (Frontiers in Plant Science, 2016).

System: O=C(O)C1=C[C@@H](O)[C@@H](O)[C@H](O)C1
Test: HPLC-UV of product, Michaelis-Menten
Assay type: biochemical, Cichorium intybus
Details: acyl acceptor varied, saturating p-coumaroyl-CoA (800 μM), 50 mM phosphate pH 7.1, room temperature
Description: HPLC-UV of product, Michaelis-Menten on HCT2 (CiHCT2)

For HCT2 (CiHCT2) (Cichorium intybus), the Km was 802 ± 63 µM, the Vmax was 18.2 µmol/min/mg and the Vmax/Km was 22800 µL/min/mg.
